Laboratory results reported in doi:10.1101/2022.08.17.504347 (bioRxiv, 2022).
Values belong to the molecule of their own block, whether it stands above or below them.

Key:
[1] = target: chicken CENP-C^677-864 (C-terminus of chicken CENP-C including the Cupin domain) (chicken); assay: crystal structure
native gel or EMSA = target: the molecule itself; assay: native gel or EMSA

- stoichiometry N [1]: 2
Molecule: chicken CENP-C^677-864 (C-terminus of chicken CENP-C including the Cupin domain) (domain or fragment)

B1: human CENP-C fragment hCENP-C^760-943 (C-terminus of hCENP-C, wild type) (domain or fragment, UniProt Q03188-1 760-943, looked up)
chain: GRPSGGFVISGVLSPDTISSKRKAKENIGKVNKKSNKKRICLDNDERKTNLMVNLGIPLGDPLQPTRVKDPETREIILMDLVRPQDTYQFFVKHGELKVYKTLDTPFFSTGKLILGPQEEKGKQHVGQDILVFYVNFGDLLCTLHETPYILSTGDSFYVPSGNYYNIKNLRNEESVLLFTQIKR
- binding result (native gel or EMSA): binds
